Experimental data published in patent publication CN105601719A, “拟组织金属蛋白酶抑制因子多肽及其应用” (Suzhou Puluoda Biological Science and Technology Co Ltd, priority 2016, dated 2016).

Tests used:
[1] = target: T1, recombinant human matrix metalloproteinase-2 (重组人基质金属蛋白酶-2) (Homo sapiens, UniProt P08253); test: In vitro inhibition of matrix metalloproteinase-2 (fluorogenic peptide cleavage); type: biochemical; details: MMP-2; substrate Mca-Pro-Leu-Gly-Leu-Dpa-Ala-Arg-NH2; pH 7.4; 37 °C; 100 μl
T1 construct: 该酶用0.01μM的基质金属蛋白酶-3活性位点活化; made in house; host or cells: E. coli
T1 sequence (P08253 110-660): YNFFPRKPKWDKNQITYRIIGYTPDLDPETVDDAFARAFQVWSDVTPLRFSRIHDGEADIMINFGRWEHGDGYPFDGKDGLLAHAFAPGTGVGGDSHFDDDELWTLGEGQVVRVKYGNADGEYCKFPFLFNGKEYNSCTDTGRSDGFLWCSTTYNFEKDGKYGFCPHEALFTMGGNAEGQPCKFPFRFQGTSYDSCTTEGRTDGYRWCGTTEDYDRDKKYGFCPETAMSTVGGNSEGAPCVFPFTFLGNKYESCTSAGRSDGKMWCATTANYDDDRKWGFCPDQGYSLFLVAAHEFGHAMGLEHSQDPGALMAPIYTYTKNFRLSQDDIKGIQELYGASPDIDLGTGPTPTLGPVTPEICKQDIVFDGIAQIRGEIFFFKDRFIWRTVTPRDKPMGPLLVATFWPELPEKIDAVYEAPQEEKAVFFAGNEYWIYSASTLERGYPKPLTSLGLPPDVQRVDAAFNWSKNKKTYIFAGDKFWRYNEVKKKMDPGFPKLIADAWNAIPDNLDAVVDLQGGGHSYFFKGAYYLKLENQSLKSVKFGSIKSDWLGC

[2] = tested on: human osteoblasts (人成骨细胞); test: Growth of human osteoblasts cultured in vitro (MTT colorimetric assay); type: cell-based; details: 48 h, absorbance 620 nm
[3] = target: recombinant human matrix metalloproteinase-9 (重组人基质金属蛋白酶-9) (Homo sapiens, UniProt P14780); test: In vitro inhibition of matrix metalloproteinase-9 (fluorogenic peptide cleavage); type: biochemical; details: MMP-9; same fluorogenic substrate, 10 μM final; 37 °C; 100 μl
Sequence of recombinant human matrix metalloproteinase-9 (重组人基质金属蛋白酶-9) (P14780 94-707): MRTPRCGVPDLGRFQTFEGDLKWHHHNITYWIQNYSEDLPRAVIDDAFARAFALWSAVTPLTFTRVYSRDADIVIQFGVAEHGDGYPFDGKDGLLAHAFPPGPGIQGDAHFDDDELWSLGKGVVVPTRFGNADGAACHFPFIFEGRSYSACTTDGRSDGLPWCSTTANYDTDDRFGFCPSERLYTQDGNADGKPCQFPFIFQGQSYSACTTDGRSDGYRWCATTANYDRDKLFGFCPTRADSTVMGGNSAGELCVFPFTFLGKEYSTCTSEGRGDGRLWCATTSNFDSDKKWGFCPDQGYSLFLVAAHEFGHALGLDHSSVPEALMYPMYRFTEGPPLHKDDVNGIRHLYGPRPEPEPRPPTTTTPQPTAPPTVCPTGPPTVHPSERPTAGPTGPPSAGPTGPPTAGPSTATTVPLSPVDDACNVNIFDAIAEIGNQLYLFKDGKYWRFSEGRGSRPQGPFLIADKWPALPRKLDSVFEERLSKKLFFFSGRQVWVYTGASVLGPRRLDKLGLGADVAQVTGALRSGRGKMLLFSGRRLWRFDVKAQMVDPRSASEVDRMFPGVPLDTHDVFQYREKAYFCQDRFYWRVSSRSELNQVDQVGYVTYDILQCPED

Sequence: PEPEFHLISAFWPSLPSYLDAA [实施例1, TIMP-mimetic 22-residue peptide made by Fmoc solid-phase synthesis]
- IC50 [1]: 75.1 µM
- EC50 [2]: 13.2 µM
- IC50 [3]: 25.8 µM
